The data set in a line: soluble on expression in E. coli; label from the status in PepcDB or PDB records.
For the sequence “MKFGIVARRDKEEALKLAYRVYDFLKVHGYEVVVDKETYEHFPHFKEGDVIPLDEFDVDFIVAIGGDGTILRIEHMTKKDIPILSINMGTLGFLTEVEPSDTFFALNRLIEGEYYIDERIKVRTYIDGENRVPDALNEVAILTGIPGKIIHMKYYVDGGLADEVRADGLVVSTPTGSTGYAMSAGGPFIDPRLDVILIAPLLPLPKTSVPMVIPGSSRIDIRMLTDREIILAIDGQYYEHLPPNVEITVVKSPRKTKFIRFTREIYPKYTIRIKERHMAGDPLEHHHHHH”, the “soluble on expression in E. coli” value is “not soluble”.

As to MASKPEKRVASSVFITLAPPRRDV, the “soluble on expression in E. coli” value is given as “soluble”.

Regarding “MSKQQIGVVGMAVMGRNLALNIESRGYTVSIFNRSREKTEEVIAENPGKKLVPYYTVKEFVESLETPRRILLMVKAGAGTDAAIDSLKPYLDKGDIIIDGGNTFFQDTIRRNRELSAEGFNFIGTGVSGGEEGALKGPSIMPGGQKEAYELVAPILTKIAAVAEDGEPCVTYIGADGAGHYVKMVHNGIEYGDMQLIAEAYSLLKGGLNLTNEELAQTFTEWNNGELSSYLIDITKDIFTKKDEDGNYLVDVILDEAANKGTGKWTSQSALDLGEPLSLITESVFARYISSLKDQRVAASKVLSGPQAQPAGDKAEFIEKVRRALYLGKIVSYAQGFSQLRAASEEYNWDLNYGEIAKIFRAGCIIRAQFLQKITDAYAENPQIANLLLAPYFKQIADDYQQALRDVVAYAVQNGIPVPTFSAAVAYYDSYRAAVLPANLIQAQRDYFGAHTYKRIDKEGVFHTEWLD”, the “soluble on expression in E. coli” value is recorded as “soluble”. With “ARNKALKADGAFNGVEKEGLFKAMKHYGYEGLAVLVSERGHYSLKKAADVLGLGQEGLVAVKTDANNRIVVDDLKTKIAELKEQNIKPIAVIGVAGTTETGSVDPLSQIAQVCQEHNCHFHVDAAWGGATLMSNHYRHLLEGVELADSVTIDAHKQLYIPMGAGMVLFKDPDAMKSIEHHAQYILRKGSKDLGSHTLEGSRSGMAMLVYAAMHIISRPGYELLIDQSIEKARYFADLIKQQDDFELVSEPELCLLTYRYLPPLIREALDKAEGTQKEKLNELINQLTQFIQKRQRETGKSFVSRTRLNPDQWQRMNTIVFRVVLANPLTTRDILSSVLDEQREIAKQAPSLTAKIEEMASDILGA”, the “soluble on expression in E. coli” value is given as “not soluble”. Regarding “MGSDKIHHHHHHMNNLIVTPGYASQFSCIGSACEDSCCHDWTIIFDKKSYKNTLNHPKLASLAKEAFIETKTDANQWAQIKLNANGTCPFVNEQQLCAIHAAAGETALSHTCKTYPRINNVIATTKYESLSLSCPEAARLVLFDANAFQFEAKSGGAKRPTAANPAWLEKTYDYSLDLLINMGVDWQQALMAIGLLVKVSDQVRQNALPIAQIDQRFEQLILLAQTKEITAQYQKIPYTPQPQTHAFVSIHDQLCKLHSRSLKPRFTSLNEAIGLLCNEGNQYQIDHLNKAWEEKALPALSNYQDLFDRYILYSLYHEHFPMIHSQQPWMAFRLLVIDCFMIRCYLSAMAFKNNGLTESDIVLCFQLYSVVRQHKAKFAEGINQTLQECGIDSIPAAISLLKTS”, the “soluble on expression in E. coli” value was “not soluble”. Take “MGSDKIHHHHHHMRQESLFNPDKSSSSPLAYRVRPVTLADFKGQEHLLGPGKLLRQLIAEDQLPSLIFWGPPGVGKTTLAEIIAQQTQSHFITFSAVTSGIKEIRQIMDEAEANRDFGEKTIVFIDEIHRFNKAQQDAFLPYVERGSITLIGATTENPSFEINAALLSRCKVLVLKALTPDALEAVLQGALQNPKGFPDLEITMQPDTLRLIAEFANGDARMALNTLEMAVLNGDRDGKHVTITTAGLSQLINTKSLRYDKHGEEHYNIISALHKSMRNSDVDAAIYWLMRMLAGGEDPLYIARRLIRFASEDIGLADRQALPLTVAVFQACQLIGMPECDVNLTEAVTYLALAPKSNALYAAKSAAQADIKATGNLPVPLQIRNAPTKLMKDLGYGSDYQYAHDTAAKLTTMTTMPPELKQHRYYEPTSQGQEKAWQQRLAAIRSGTSNIRKPNRQMMRHKDCNLMRIH”: the “soluble on expression in E. coli” value is “not soluble”. Take “MEKAADLQDTASLTLKFKFNPKLGIDNPVLSLAEDHDPYDPWSLERPRFCLLSKEEGKSFGFHLQQELGRAGHVVCRVDPGTSAQRQGLQEGDRILAVNNDVVEHEDYAVVVRRIRASSPRVLLTVLARHAHDVARAQLGEDAHLCPTLGPGVRPRLCHIVKDEGGFGFSVTHGNQGPFWLVLSTGGAAERAGVPPGARLLEVNGLWQSGQQVTLLVAGPEVEEQCRQLGLPLAAPLAEGWALPTKPRCLHLEKGPQGFGFLLREEKGLDGRPGQFLWEVDPGLPAKKAGMQAGDRLVAVAGESVEGLGHEETVSRIQGQGSCVSLTVVDPEADRFFSMVRLSPLLFLENTEAPASPQGSSSASLVETEDPSLEDTSVPSVPLGSRQCFLYPGPGGSYGFRLSCVASGPRLFISQVTPGGSAARAGLQVGDVILEVNGYPVGGQNDLERLQQLPEAEPPLCLKLAARSLRGLEAWIPPGAAEDWALASDLL”: the “soluble on expression in E. coli” value was “soluble”. Next, “MGSDKIHHHHHHMIIQSKLIRAALVCAAKNDVRYYLNGLHITPKHIEATNGSVALRMAHGIRTKKNIIVQFEGGVPAKAETTELIFSKEPIAVHRDQFQRRLSITGIKLVDGCFPDLDRIIPKKFDRCTHPVLQAGYLSYPEKMFGRERKFIPVQLRPSGDGQAVRIQFDSIINSMYGNPEFVVMPCRDHGDFNVAQEHPE”: “not soluble”; “MKFLQFALLFFIICITTTDASKKTQRVLKKVGKRFSLSEFGVVQRLDYMWRTAETVEAARNHSAELVARLLLSQSSADNLKFQESADILYSLMDNNFEGKICGGDETLNFYQMSDYWKRQRKTYRRNEKENVTWRAYPIEDNAYNKFMVRFNSKSTWGYSATMIYVVHMRLLGEKKYSNYTLTKIEEVGACTEYGGVSLENTNLYELDPERLETRDKLLKHLQELFYTEQKVSEIPFDWIYSSASEKELKIEVCHGTELKKMAKKDFIKWWEWFQMMCRPVKGENEHTLVQITGGVYDRLVFRVTMLVHVGTEDIHPTEEFSFKLQFKYDVHGDKEWLINKFEVMCPTIAVPEADLMKKHALVYREIIGSRLQLMVNNPELWYNFAEAIVALTSPTYEVENCAGKGEEMEKGTDMYQLKHTFWKLNKDTHGRMEGYTLGKKNDISETGEKMWARIRIIWTPGNDKLVYDSRWTFYLEWNSDLQAFTIYKMILQCPTVARIGEIKYYSSLNKPTTNTTSQ”: “not soluble”. Next, “MGSDKIHHHHHHMDHQIEDFLEHWLPLADDAWVLAVITQIQGSAYRKPGAMMLFHEFGQGVGMLSGGCLEADLRRHAQKAMQTKQVTCVTYDASDESDASYRLGCGGIVDIMLIPLLKENHDLGLIELVQAFRHGRSGFYQLPLVKAGTDARQYQAAFYPEALTPFPASDFVRTGVFTQEAGESLIIPLRPRFHLGIFGGGIDAKPIAAMADTLGWQVTVFDGRTAYARAADFPHAHIVKLTAGELTANHIAQLDCAVVMNHNLGLDAVALKVIQAHPLAYVALLGPAHRRDKVLGMAGLSTESFSGVFSAPAGLALGGELPSAVALSILAQCHGVLHGATLKHLDEIMR”: “not soluble”; “GSELKDYYAIMGVKPTDDLKTIKTAYRRLARKYHPDVSKEPDAEARFKEVAEAWEVLSDEQRRAEYDQMWQHR”: “soluble”; “MGSDKIHHHHHHAKTTTATTTQASVKKQTYTILSSSFYKTAKTYHTKDAKPVVYKAVMGADRPTMTLTAKGKLKAGTTYKVTKQVKVKINAKKSQKYSYVKGQGWVVSSKLTAGKFKAASGVKKTATKYTIVSVTALKKAKTVHTKDARPVVYKAAVAADRPTMTLTTNGKLKAATTYKVTKQAKLKNAAKKTVAFSYVSGHGWVLQRDLTNGQFMNAD”: “not soluble”. Next, “MSHVDDGFRSLTLKRFPQTDDVNPLLAWEAADEYLLQQLDETEIRGPVLILNDTFGALSCALAEHSPYSIGDSYLSELGTRENLRHNGIAESSVTFLDSTADYPQAPGVVLIKVPKTLALLEQQLRALRKVVTAQTRIIAGAKARDIHTSTLELFEKVLGPTTTTLAWKKARLINCTFSHPQLADAPQTLSWKLEDTGWTIHNHANVFSRTGLDIGARFFMQHLPENLDGEIVDLGCGNGVIGLSLLAKNPQANVVFVDESPMAVDSSRLNVETNLPEAFERCEFMINNALSGVEPFRFNAVFCNPPFHQKHALTDNIAWEMFHHARRCLKINGELYIVANRHLDYFHKLKKIFGNCATIATNNKFVILKAVKQGRRR”: “not soluble”; “MGHHHHHHSHMAICQFFLQGRCRFGDRCWNEHPGARGAGGGRQQPQQQPSGNNRRGWNTTSQRYSNVIQPSSFSKSTPWGGSRDQEKPYFSSFDSGASTNRKEGFGLSENPFASLSPDEQKDEKKLLEGIVKDMEVWESSGQWMFSVYSPVKKKPNISGFTDISPEELRLEYHNFLTSNNLQSYLNSVQRLINQWRNRVNELKSLNISTKVALKCLWKIYTHLSPKIYGPDCAL”: “not soluble”; “MRIFPVFLLTFSLFLIKEEIVTAEVKVSAPVVNQSGIKLNLERQFTGSDVAINRIHFSPDGQFLLTAAADGVGTLWTKEGEMLGQLQGQKPPMFNARLSPDRQILITTGYDGTIRLWNLQGELLEEQQPHRAAVADAIFSPDSQIIVTCSDDGQTKIFTRQGQEIASVLKSGTARNLAYHPQGLLIASVSDSGSLHLINPNGKIEREISTGQGRINNVNFSPNGEQLLTSGINGSAKLWNLAGELIHEYKVVPTGWVNSAQFYPKGEWLATASDDGTIRFWQKDGQLIYELPLVNARLTSLSFSPDGKQLAATSSQGQVWVFNLSYLEHHHHHH”: “not soluble”.

For the sequence “MSDSQINSRTTIDEYLSRADWRVNANANQDYSLGGMILNAAGKVTANYWLDQVFSPAASAAHREGSIHIHDLDMLSGYCAGWSLRQLLEEGFGGVPGTISSRPPKHFSSACGQIVNFLGTLQNEWAGAQAFSSFDTYMAPFVRLDNLSYDEIVQDMQEFIFNLNVPSRWGTQTPFTNLTFDWTCPADLKDSVPFIGEEPVDFTYGELQEEMDLINRAFIQVMSAGDADGRPFTFPIPTYNITKDFDWDSPNTEALFTMTAKYGLPYFQNFINSDLDPGMIRSMCCRLQLDLRELLKRGNGLFGSAELTGSIGVVTLNCARLGYLYAGDEQALLGAVDELIELGIDTLERRRDFVATHMRQGLYPYSARWLPSLDNHFSTIGVNGCNEMIRNFTHDAYNLTDPQGHAQVARLLDHINARLVQAQERTGHLFNLEATPAEGTTYRLAKEDLKRYPDMLHAGTPEEPYYTNSSQLPVSHTPDPFEALALQEDLQSKYTGGTVLHLYMGAAMSDGKACAALVRRALTNFHLPYITITPTFSICPDHGYISGEHPECPQCGATTEMWTRVMGYFRPVQSFNTGKKGEFHERTYFAEALI”, the “soluble on expression in E. coli” value is given as “not soluble”.

As for “MIYSFRNSGFRDPETGVYNQTYFMEVFNREWHRHIREQQSLALLYLCPHIHETVKQPHLLEFFTKQVQEALLRATDLIARLDHNHFALGLFNIDEEGTEVVLKRIGQHIQDFNQEFGKNHKLKIDYKLAACLCLPTQEQKIESMFNNVSKLSQELERSPQQSQALIKLQ”, the “soluble on expression in E. coli” value was “not soluble”. Next, “MSDVSLKLSAKDIYEKDFEKTMARGYRREEVDAFLDDIIADYQKMADMNNEVVKLSEENHKLKKELEELRLRVATSRPQDNKSFSSNNTTTNTSSNNVDILKRISNLEKAVFGK”: “not soluble”; “MENEKIWIKELKEKRLAYGVSQNKLAVASHITRPYLSDIETGKAVPTQQVKEDLLNALERFNPDNPLEMLFDYVRIRFPTNDVAQIIGEVLRLNMDYMLHEDFGYYSYPEHYRFGDIVVLVSHDVSKGVLLELKGKGCRQFENFLLAQHRSWYDFFQDCMEHKGIFKRLDLAINDKTGILNIPDLAKKCKQEECISVFRSFKNYRSGELVHRDEKPYMGNTLYIGSLKSEVYFCIYEKDYEQYVKNDVPLEDAEVKNRFEIRLKNDRATQAMKDLLAHQQAEKTAFEIINRYIRFADKDDTKRRSDWKTNERWEWFIGKNRGALRLTTQPEPYSFERTLNWLHHQVAPTLKIASILDVLNGTTIISTMIQEAKLTEKHEKLIEQQHLAMEDLIT”: “not soluble”.
